In paper PMC5116672:

Tests used:
[1] = protein accumulation on Gp78 siRNA, immunoblot; settings: glycan lost; control: CD147(WT)-EGFP
[2] = anti-EGFP immunoblot of total lysates; mRNA unchanged; settings: glycan lost; control: CD147(WT)-EGFP
[3] = immunofluorescence colocalisation with chaperones; settings: glycan lost; control: CD147(WT)-EGFP
[4] = confocal immunofluorescence with ER-Tracker, stable cells; settings: glycan lost; control: CD147(WT)-EGFP
[5] = immunofluorescence with CNX, 12 h castanospermine; settings: glycan changed form
[6] = confocal immunofluorescence with ER-Tracker, transient double mutants; settings: glycan lost; control: CD147(WT)-EGFP
[7] = immunofluorescence, aggregation with GRP78, 24 h castanospermine; settings: glycan changed form; control: CD147(WT)-EGFP cells without CAS

B1: CD147: N152Q (protein)
parent chain: MAAALFVLLGFALLGTHGASGAAGTVFTTVEDLGSKILLTCSLNDSATEVTGHRWLKGGVVLKEDALPGQKTEFKVDSDDQWGEYSCVFLPEPMGTANIQLHGPPRVKAVKSSEHINEGETAMLVCKSESVPPVTDWAWYKITDSEDKALMNGSESRFFVSSSQGRSELHIENLNMEADPGQYRCNGTSSKGSDQAIITLRVRSHLAALWPFLGIVAEVLVLVTIIFIYEKRRKPEDVLDDDDAGSAPLKSSGQHQNDKGKNVRQRNSS
For B1, the degradation_or_half_life [1] was “decreases”, the expression_or_secretion [2] was “decreases” and the localisation_or_trafficking [3] was “increases”. The localisation_or_trafficking [4] was “changes”.

B2: CD147: castanospermine (CAS) 12 h (protein)
parent chain: B1 parent chain
For B2, the localisation_or_trafficking ([5]; control: CD147(WT)-EGFP cells without CAS) was “changes”.

B3: CD147: N186Q (protein)
parent chain: B1 parent chain
With B3 the localisation_or_trafficking [4] was “changes”.

B4: CD147: N152/186Q (protein)
parent chain: B1 parent chain
For B4, the localisation_or_trafficking [6] was “changes”.

B5: CD147: castanospermine (CAS) 24 h (protein)
parent chain: B1 parent chain
For B5, the stability_or_folding [7] was “decreases”.

B6: CD147: N44/152Q (protein)
parent chain: B1 parent chain
In the case of B6, the localisation_or_trafficking [6] is reported as “changes”.

B7: CD147: N44/152/186Q (protein)
parent chain: B1 parent chain
For B7, the expression_or_secretion [2] was “decreases” and the localisation_or_trafficking [4] was “changes”.

B8: CD147: N44Q (protein)
parent chain: B1 parent chain
With B8 the localisation_or_trafficking [4] was “changes”.

B9: CD147: N44/186Q (protein)
parent chain: B1 parent chain
With B9 the localisation_or_trafficking [6] was “no change”.

B10: CD147: castanospermine (CAS) 12 h on N44/186Q (protein)
parent chain: B1 parent chain
With B10 the localisation_or_trafficking ([5]; control: CD147(N44/186Q)-EGFP cells without CAS) was “changes”.
